{
  "source": "paper PMC11260460",
  "about": "“A Plasmodium apicoplast-targeted unique exonuclease/FEN exhibits interspecies functional differences attributable to an insertion that alters DNA-binding”",
  "binders": {"B1": {"name": "Blunt-end dsDNA (14 bp) (dsDNA)", "DNA 1": "CTAGTGTACATGCA", "DNA 2": "TGCATGTACACTAG"}, "B2": {"name": "BLI blunt-end dsDNA (34 bp) (dsDNA)", "DNA 1": "CAGTCCGAGCTAGGCAACATACGATAATCCATAC", "DNA 2": "GTATGGATTATCGTATGTTGCCTAGCTCGGACTG"}, "B3": {"name": "5'-flap DNA (dsDNA)", "DNA 1": "AAAACGTCAACTAGCTTCTCAAACAGCTCATATATCTTAA", "DNA 2": "B2 DNA 1", "DNA 3": "TTAAGATATATGAGCAGTATGGATTATCGTATGTTGCCTAGCTCGGACTG"}},
  "key": {"PfExoΔins [1]": {"target": "T1, PfExoΔins (Plasmodium falciparum 3D7, UniProt O96139 91-577, del241-393)", "test": "EMSA; 2 mM Mg2+; EMSA: 400 nM FAM-DNA, binding buffer as printed 200 mM HEPES pH 8.0, 500 mM NaCl, 10 mM DTT, 1 mg/ml BSA, 10% glycerol, 2 mM MgCl2, 30 min on ice, 6% native PAGE; BLI: 1x kinetic buffer in 1x PBS, Octet R8, 1:1 global fit", "conditions": "protein: recombinant, tags: C-terminal 6xHis"}, "PfExo [2]": {"target": "T2, PfExo (Plasmodium falciparum 3D7, UniProt O96139 91-577)", "T2 sequence": "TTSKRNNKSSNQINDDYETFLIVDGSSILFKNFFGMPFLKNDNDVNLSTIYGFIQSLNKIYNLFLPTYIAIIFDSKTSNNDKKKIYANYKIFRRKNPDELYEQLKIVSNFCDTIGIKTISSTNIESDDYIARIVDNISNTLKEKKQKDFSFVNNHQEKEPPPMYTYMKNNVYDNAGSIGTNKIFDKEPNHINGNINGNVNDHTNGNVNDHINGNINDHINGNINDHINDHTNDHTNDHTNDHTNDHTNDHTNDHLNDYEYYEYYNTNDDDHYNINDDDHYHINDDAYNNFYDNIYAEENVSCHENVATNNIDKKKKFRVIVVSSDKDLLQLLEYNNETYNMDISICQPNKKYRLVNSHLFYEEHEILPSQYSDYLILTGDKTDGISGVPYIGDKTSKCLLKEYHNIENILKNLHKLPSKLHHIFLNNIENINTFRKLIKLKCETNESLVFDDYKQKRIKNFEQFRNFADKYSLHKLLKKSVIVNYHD", "test": "BLI; KD value only in figure; EMSA: 400 nM FAM-DNA, binding buffer as printed 200 mM HEPES pH 8.0, 500 mM NaCl, 10 mM DTT, 1 mg/ml BSA, 10% glycerol, 2 mM MgCl2, 30 min on ice, 6% native PAGE; BLI: 1x kinetic buffer in 1x PBS, Octet R8, 1:1 global fit", "conditions": "protein: recombinant; tags: C-terminal 6xHis; label: 5' biotin on strand 1; blunt"}, "PfExoΔins [3]": {"target": "T1, PfExoΔins", "test": "BLI; EMSA: 400 nM FAM-DNA, binding buffer as printed 200 mM HEPES pH 8.0, 500 mM NaCl, 10 mM DTT, 1 mg/ml BSA, 10% glycerol, 2 mM MgCl2, 30 min on ice, 6% native PAGE; BLI: 1x kinetic buffer in 1x PBS, Octet R8, 1:1 global fit", "conditions": "protein: recombinant; tags: C-terminal 6xHis; label: 5' biotin on strand 1; blunt"}, "PfExo [4]": {"target": "T2, PfExo", "test": "EMSA; 2 mM Mg2+; EMSA: 400 nM FAM-DNA, binding buffer as printed 200 mM HEPES pH 8.0, 500 mM NaCl, 10 mM DTT, 1 mg/ml BSA, 10% glycerol, 2 mM MgCl2, 30 min on ice, 6% native PAGE; BLI: 1x kinetic buffer in 1x PBS, Octet R8, 1:1 global fit", "conditions": "protein: recombinant, tags: C-terminal 6xHis"}},
  "data": [
    {"binder": "B1", "values": [
      {"measurement": "binding result", "setting": "PfExoΔins [1]; label: 3' 6-FAM on strand 1, blunt", "result": "no binding"}
    ]},
    {"binder": "B2", "values": [
      {"measurement": "binding result", "setting": "PfExo [2]", "result": "binds"},
      {"measurement": "binding signal", "setting": "PfExoΔins [3]", "result": "~5", "unit": "fold higher KD than PfExo"}
    ]},
    {"binder": "B3", "values": [
      {"measurement": "binding result", "setting": "PfExo [4]; label: FAM, 5' flap", "result": "binds"},
      {"measurement": "binding result", "setting": "PfExoΔins [1]; label: FAM, 5' flap", "result": "no binding"}
    ]},
    {"binder": "AAAACGTCAACTAGCTTCTCAAACACCTCATATATCTTAA (ssDNA)", "note": "[ssDNA 5'-3' exo substrate]", "values": [
      {"measurement": "binding result", "setting": "PfExo [4]; label: 3' 6-FAM, single strand", "result": "binds"}
    ]},
    {"binder": "AAAACGTCAACTAGCTTCTCAAACAGCTCATATATCTTAA (ssDNA)", "note": "[ssDNA 3'-5' exo substrate]", "values": [
      {"measurement": "binding result", "setting": "PfExo [4]; label: 5' 6-FAM, single strand", "result": "binds"}
    ]}
  ]
}
